In US11020478B2, “Methods for modulating angiogenesis of cancers refractory to anti-VEGF treatment” (INIS BIOTECH LLC, priority 2013, dated 2021):

Legend:
R1.1 T-cell lymphoma = assay: In vivo tumor model, R1.1; set-up: species or system mouse
Description: Cells were incubated at 37° C. for periods ranging from 0 to 24 h and were visualized by phase-contrast microscopy. Capillary-like tubular structures were scored by counting the number of tubules (closed areas) per well in a phase-contrast microscope (Nikon E-100). For migration assays, ECs (4×10^4/well) transfected or not with specific siRNA were resuspended in M199 medium supplemented with 1% FCS. Cells were placed into the top chamber of the insert while the bottom well was filled with Gal1 or VEGF-A in the absence or presence of the above mentioned stimuli. After 24 hours, inserts were stained with crystal violet (Sigma) and analyzed in an inverted microscope. For each filter, 4 images were obtained and cells were counted with ImageJ software v1.46r (NIH). […] After 24 hours, cells were incubated in the presence of 0.8 μCi [^3H]-thymidine (NEN Dupont). Cells were then harvested and radioactivity was measured in a 1414 Liquid Scintillation Counter (Perkin Elmer). Tumor-associated ECs were identified by flow cytometry using Alexa Fluor 647-conjugated anti-CD34 (RAM34; eBioscience) and FITC-conjugated anti-CD45 (J33; Immunotech). Microvessel density (MVD) was determined by counting the number of CD31^+ microvessels present in 10 mm^2. Ten random 400× fields were counted. […]

B16-F0 tumor parenchyma = assay: Adoptive transfer of CFSE-labeled T cells / fluorescent beads, influx to tumor and spleen; type: in vivo, mouse
Description: (§1) For intracellular cytokine staining, TDLN cells were made permeable with Perm2 solution (BD Biosciences) and were labeled with fluorescent-conjugated mAb anti-IFN-γ (XMG1.2; BD Biosciences), anti-IL-17 (TC11-18H10; BD Biosciences), anti-IL-10 (JESS-16E3; eBioscience), anti-CD8 (H35-17.2; eBioscience) and anti-CD4 (GK1.5; BD Biosciences). Cells were analyzed on a FACSCanto II flow cytometer (BD Biosciences). For adoptive transfer, splenic T cells (5×10^6) from tumor-bearing mice were labeled with CFSE (Molecular Probes) and injected through the tail vein into tumor-bearing recipient mice treated with F8.G7 mAb or isotype control. APC-fluorescent beads (7-10 μm; BD Biosciences) were injected as controls. CFSE^+ cells or APC^+ beads were analyzed after 24 h or 15 min respectively by flow cytometry in the tumor parenchyma and spleen.

TDLN cells = assay: TDLN cell responses of tumor-bearing mice (ex vivo restimulation, ELISA, flow cytometry); type: in vivo, mouse
Description: (§2) Gal1 was determined using an in-house ELISA (according to the methods described in Croci et al., J. Exp. Med. 209:11, 1985-2000 (2012). The mouse IFN-γ (DY485), mouse IL-17 (DY421), mouse TGF-β1 (DY1679), mouse Gal3 (DY1179) and human VEGF-A (DY293B) ELISA sets were from R&D. The mouse IL-10 (555252) set was from BD Biosciences, the mouse bFGF (Ab100670) set was from Abcam, and the mouse Gal8 (SEA308Mu) set was from USCN Life Science. Optical densities were determined at 450-550 nm in a Multiskan MS microplate reader (Thermo Electron Corporation).
as §1
(§3) Mice were anesthetized and intracardiacally perfused with PBS and 4% (w/v) paraformaldehyde and tissues were embedded in OCT. To visualize the vasculature, mice were intravenously injected with FITC-conjugated Griffonia simplicifolia Lectin-1 (GLS-1B4; Vector) prior to heart perfusion and fixation. Pericyte maturation was assessed using Ab specific for α-SMA (1A4; Dako), desmin (D33; Dako), PDGFR-β (APB5; Biolegend) and RGS5 (HPA001821; Prestige Sigma). The fraction of pericyte coverage was calculated as the ratio of α-SMA area to the FITC-GLS-1B4 or CD31-stained area using a specific anti-CD31 Ab (Mec13.3; BD Biosciences). Hypoxia was detected after injection of pimonidazole hydrochloride for 30 min following immunostaining with Hypoxyprobe-1 plus kit (Natural Pharmacia). Tumor-infiltrating cells were analyzed using anti-CD8 (H35-17.2; e-Bioscience) and anti-F4/80 (BM8; eBioscience) mAb.
Wild-type or Gal1 knockdown B16-F0, LLC1 and R1.1 (2.5 or 5×10^5 cells) were subcutaneously inoculated into 6- to 8-week old WT, Mgat5^−/−, St6gal1^−/− or Rag1^−/− B6 mice. CT26 (5×10^5) cells were injected into syngeneic BALB/c mice. […] Two weeks after tumor inoculation, TDLN cells (5×10^5/well) were re-stimulated ex vivo for 72 hours with lysates of B16-F0 or LLC1 cells and analyzed for proliferation and cytokine production (as described in Rubinstein et al., Cancer Cell 5:3, 241-51 (2004)).

B16-F0 melanoma [1] = assay: In vivo tumor model, B16-F0; set-up: species or system mouse
Description: as §3
(§4) Wild-type or Gal1 knockdown B16-F0, LLC1 and R1.1 (2.5 or 5×10^5 cells) were subcutaneously inoculated into 6- to 8-week old WT, Mgat5^−/−, St6gal1^−/− or Rag1^−/− B6 mice. CT26 (5×10^5) cells were injected into syngeneic BALB/c mice. When tumors reached 100 mm^3, mice were inoculated intraperitoneally with anti-VEGF (B20-4.1.1; 5 or 10 mg/kg), anti-Gal1 (F8.G7; 5, 10 or 15 mg/kg) or isotype control mAb twice weekly. Axitinib (30 mg/kg; Sigma) was administered every two days by oral gavage. Mice were sacrificed when tumors reached a volume greater than 2.5 cm^3. Two weeks after tumor inoculation, TDLN cells (5×10^5/well) were re-stimulated ex vivo for 72 hours with lysates of B16-F0 or LLC1 cells and analyzed for proliferation and cytokine production (as described in Rubinstein et al., Cancer Cell 5:3, 241-51 (2004)).

VEGFR2 = assay: Immunoblot of VEGFR2 phosphorylation in HUVEC; type: cell-based, human
Description: Cells were lysed and analyzed by the human […] RTK Signaling Antibody Array (Cell Signaling) following the manufacturer's directions. For co-immunoprecipitation, 500 μg lysates were incubated with 2 μg anti-VEGFR2 (55B11; Cell Signaling) Ab. The immunocomplexes were captured with protein G PLUS-Agarose (Santa Cruz) and processed for immunoblotting (according to methods described in Ilarregui et al., Nat. Immunol. 10, 981-99 (2009)). Blots were probed with anti-Erk1/2 (C14), anti-phospho-Erk1/2 (E4), anti-actin (I-19), anti-Gal3 (B2C10), anti-Gal4 (Q20), anti-Gal7 (H8) or anti-Gal8 (D18) Ab (all from Santa Cruz) or anti-Akt (9272), anti-phospho-Akt (9271 S), anti-VEGFR2 (55B11), anti-phospho-VEGFR2 (19A10) Ab (all from Cell Signaling) or a rabbit anti-Gal1 polyclonal IgG (1.5 μg/ml) (as described in Rubinstein et al., Cancer Cell 5:3, 241-51 (2004)).

B16-F0 melanoma [2] = assay: In vivo tumor model, B16-F0; set-up: species or system mouse; conditions: single administration of F8.G7 mAb, 10 mg/kg
[3] = tested on: other members of the galectin family; conditions: cited from earlier work
Gal1 = molecular target: T1, Gal1 (Mus musculus, UniProt P16045); assay: ELISA of Gal1 secretion by tumors inoculated in syngeneic mice; type: in vivo; conditions: B16-F0, LLC1 and R1.1 tumors, day 16
T1 construct: from tissue; host or cells: B16-F0, LLC1 and R1.1 tumours grown in syngeneic mice
T1 sequence (P16045 whole entry): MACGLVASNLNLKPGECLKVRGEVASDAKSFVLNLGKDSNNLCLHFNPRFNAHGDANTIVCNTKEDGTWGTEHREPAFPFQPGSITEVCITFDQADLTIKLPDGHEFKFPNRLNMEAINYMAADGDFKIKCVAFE
Description: as §2, §4

HUVEC migration = assay: EC migration assay (HUVEC); type: cell-based, human
Description: (§5) Cells were incubated at 37° C. for periods ranging from 0 to 24 h and were visualized by phase-contrast microscopy. Capillary-like tubular structures were scored by counting the number of tubules (closed areas) per well in a phase-contrast microscope (Nikon E-100). For migration assays, ECs (4×10^4/well) transfected or not with specific siRNA were resuspended in M199 medium supplemented with 1% FCS. Cells were placed into the top chamber of the insert while the bottom well was filled with Gal1 or VEGF-A in the absence or presence of the above mentioned stimuli. After 24 hours, inserts were stained with crystal violet (Sigma) and analyzed in an inverted microscope. For each filter, 4 images were obtained and cells were counted with ImageJ software v1.46r (NIH). […] After 24 hours, cells were incubated in the presence of 0.8 μCi [^3H]-thymidine (NEN Dupont). Cells were then harvested and radioactivity was measured in a 1414 Liquid Scintillation Counter (Perkin Elmer). Tumor-associated ECs were identified by flow cytometry using Alexa Fluor 647-conjugated anti-CD34 (RAM34; eBioscience) and FITC-conjugated anti-CD45 (J33; Immunotech). Microvessel density (MVD) was determined by counting the number of CD31^+ microvessels present in 10 mm^2. Ten random 400× fields were counted.

[4] = tested on: LLC1 Lewis lung carcinoma; assay: In vivo tumor model, LLC1; set-up: species or system mouse
Description: Cells were incubated at 37° C. for periods ranging from 0 to 24 h and were visualized by phase-contrast microscopy. Capillary-like tubular structures were scored by counting the number of tubules (closed areas) per well in a phase-contrast microscope (Nikon E-100). For migration assays, ECs (4×10^4/well) transfected or not with specific siRNA were resuspended in M199 medium supplemented with 1% FCS. Cells were placed into the top chamber of the insert while the bottom well was filled with Gal1 or VEGF-A in the absence or presence of the above mentioned stimuli. After 24 hours, inserts were stained with crystal violet (Sigma) and analyzed in an inverted microscope. For each filter, 4 images were obtained and cells were counted with ImageJ software v1.46r (NIH). […] After 24 hours, cells were incubated in the presence of 0.8 μCi [^3H]-thymidine (NEN Dupont). Cells were then harvested and radioactivity was measured in a 1414 Liquid Scintillation Counter (Perkin Elmer). […] Microvessel density (MVD) was determined by counting the number of CD31^+ microvessels present in 10 mm^2. Ten random 400× fields were counted.
Mice were anesthetized and intracardiacally perfused with PBS and 4% (w/v) paraformaldehyde and tissues were embedded in OCT. […] Pericyte maturation was assessed using Ab specific for α-SMA (1A4; Dako), desmin (D33; Dako), PDGFR-β (APB5; Biolegend) and RGS5 (HPA001821; Prestige Sigma). […]

HUVEC tube formation = assay: Capillary-like tube formation on Matrigel (HUVEC); type: cell-based, human; conditions: HUVEC
Description: as §5

[5] = F8.G7 10 mg/kg combined with anti-VEGF mAb, day 7
[6] = single administration of F8.G7 mAb, 10 mg/kg

B1: F8.G7: mouse anti-Gal1 blocking (neutralizing) monoclonal antibody; hybridoma 8F4.F8.G7, ATCC deposit PTA-10535; vH SEQ ID NO: 6, vK SEQ ID NO: 11 (antibody, V domains shown)
VH: EVQLQQSVAEFVRPGASVRLSCTASGFNIKNTYIHWVRQRPEQGLEWIGKIDPANGNTKYVPEFQGKATMTADTSSNTVYLHLSSLTSEDTAIYYCVDGYYGWYFAVWGTGTTVTVSS
VL: QAVVTQESALTTSPGETVTLTCRSSTGAVTTSNYANWVQEKPDHLFTGLIGATNNRAPGVPARFSGSLIGDKAVLTITGAQTEDEAIYFCALWYRNHFIFGSGTKVTVL
modifications: Anti-human
- anti-VEGF resistance (tumor growth inhibition and reduced vascularization) (R1.1 T-cell lymphoma; [5]): successfully circumvented
- tumor growth and vascularization (R1.1 T-cell lymphoma; [6]): sustained inhibition of tumor growth and vascularization
- T cells reaching tumor parenchyma (B16-F0 tumor parenchyma; CFSE-labeled T cells, vs control isotype): greater number
- number of CFSE+ T cells in spleens (B16-F0 tumor parenchyma; vs control isotype): no differences
- access of fluorescently-labeled beads to the tumor parenchyma (B16-F0 tumor parenchyma; vs control-treated mice): increased access
- T-cell proliferation (TDLN cells; mice bearing B16-F0 tumors): stimulated
- tumor-specific IL-10 production (TDLN cells; mice bearing B16-F0 tumors): blunted
- immunological phenotype (TDLN cells; mice inoculated with LLC1): confirmed
- number of TDLN and tumor-infiltrating IFN-γ-producing CD8+ T cells (TDLN cells; vs control-treated mice): dramatic increase
- therapeutic benefit of anti-VEGF (B16-F0 melanoma [1]; F8.G7 10 mg/kg combined with anti-VEGF mAb): slightly enhanced
- remodeling of tumor vasculature (B16-F0 melanoma [1]; days 4-5 post treatment): substantial remodeling of the vasculature
- pericyte coverage of tumor vessels (B16-F0 melanoma [1]; days 4-5 post treatment, vs control mAb): greater coverage by pericytes
- anti-tumor effect (B16-F0 melanoma [1]; immunodeficient B6.Rag1−/− mice): only a partial anti-tumor effect
- concentrations at which active (B16-F0 melanoma [1]; in vivo tumor models): 5 to 10 mg/kg
- tumor hypoxia (pimonidazole adducts) (B16-F0 melanoma [1]; mouse, in vivo): markedly alleviated
- tumor growth at different doses (B16-F0 melanoma [1]; treated when tumors reached 100 mm^3): dose-dependent effect
- Desmin expression in pericytes (B16-F0 melanoma [1]; vs control-treated tumors): no significant variations
- PDGFR-β expression in pericytes (B16-F0 melanoma [1]; vs control-treated tumors): lower expression
- RGS5 expression in pericytes (B16-F0 melanoma [1]; vs control-treated tumors): lower expression
- α-SMA expression in pericytes (B16-F0 melanoma [1]; vs control-treated tumors): higher expression
- Gal1-induced VEGFR2 phosphorylation (VEGFR2): inhibited to levels comparable to those attained by MGAT5 silencing
- tumor growth and vascularization (B16-F0 melanoma [2]): sustained inhibition of tumor growth and vascularization
- binding to other members of the galectin family [3]: did not bind
- amounts of secreted Gal1 (Gal1): dropped substantially
- EC migration induced by Gal1 (HUVEC migration): specifically prevented
- anti-VEGF resistance (tumor growth inhibition and reduced vascularization) [4, 5]: successfully circumvented
- tumor growth and vascularization [4, 6]: sustained inhibition of tumor growth and vascularization
- tube formation induced by Gal1 (HUVEC tube formation): specifically prevented
